One data set has as its target T1, Lp-PLA2 (Homo sapiens, UniProt Q13093).
T1 construct: Unless otherwise indicated all plasma samples were collected from human and are human plasma; from tissue; host or cells: human blood plasma (EDTA)
T1 sequence (Q13093 22-441): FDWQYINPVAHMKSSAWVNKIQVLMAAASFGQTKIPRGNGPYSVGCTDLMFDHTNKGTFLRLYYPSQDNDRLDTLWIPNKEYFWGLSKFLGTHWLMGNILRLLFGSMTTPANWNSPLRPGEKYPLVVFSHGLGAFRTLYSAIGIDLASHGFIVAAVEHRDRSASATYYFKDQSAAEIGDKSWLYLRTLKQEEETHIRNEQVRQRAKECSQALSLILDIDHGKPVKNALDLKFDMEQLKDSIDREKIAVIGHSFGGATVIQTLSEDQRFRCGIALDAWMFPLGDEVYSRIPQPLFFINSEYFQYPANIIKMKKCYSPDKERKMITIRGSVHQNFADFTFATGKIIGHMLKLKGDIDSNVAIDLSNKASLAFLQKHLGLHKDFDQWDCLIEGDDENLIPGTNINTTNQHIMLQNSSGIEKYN
In words: Auto PAF AH assay (Azwell kit, Olympus Au640). The class given is biochemical. Here is the method: The Auto PAF AH assay kit, manufactured by Azwell (Osaka, Japan), is commercially available in the United States through Karlan Research Products Corporation (Santa Rosa, Calif.).
Azwell Auto PAF-AH Assay Kit:
Prepare the following reagents: • R1: Use this buffer solution as supplied in Azwell Auto PAF AH assay kit. Store at 4° C. Protect from light. • R2: Prepare the R2 working solution by mixing R2A and R2B (supplied in Azwell Auto PAF AH assay kit) in the proportion of 19:1. Store at 4° C. Protect from light. • 3. […] Briefly centrifuge to spin down fibrin clots/particles in the plasma. • 4. Place Sarstedt tubes containing plasma samples onto sample tubes that fit the instrument. Run plasma samples through the Au640 analyzer. After choosing the PAF AH assay program, the analytical procedure described below is performed automatically: • Test sample (2 μL)+R1 (240 μL), 37° C., 5 minutes [0-5 minutes] • Add R2 (80 μL), 37° C., 5 minutes [5-10 minutes] • Measure the absorbance at 410 nm and 480 nm [6-8 minutes] • Calculate PAF AH activity (IU/L) • 5.

A short description of data set [1]: Plasma level of inhibitor in clinical studies (pharmacokinetics). The settings on record: human subjects, administered in vivo.
Data set [2] deals with T2, recombinant human Lp-PLA2 protein (hrLp-PLA2) (Homo sapiens, UniProt Q13093).
T2 construct: made in house
T2 sequence (Q13093 22-441): T1 sequence (Q13093 22-441)
In words: Modified colorimetric assay of recombinant human Lp-PLA2 protein (dynamic range). To be noted: for Activity (assay dynamic range): hrLp-PLA2 14.6-3750 ng/ml, […] substrate/45 μL. The class given is biochemical. The procedure: (§1) Assay dynamic range was defined by using both recombinant human Lp-PLA2 protein (hrLp-PLA2) generated in-house and Lp-PLA2 protein purified from human plasma in-house.
hrLp-PLA2 was serially diluted and 25 μL of each diluted hrLp-PLA2 were assayed by a modified drug-sensitive colorimetric assay (data shown in Table 10). […]. (see Table 10).
[…]. Therefore, such conditions with lower substrate concentration and higher sample volume could be used when higher measurable in vivo inhibition is desired while the range of Lp-PLA2 activity for test samples is limited or could be compromised. […]. Earlier and shorter reaction time could be considered to use in activity calculation to improve assay dynamic range when such conditions are used.

In data set [3] the target is T3, hLp-PLA2 purified from plasma (Homo sapiens, UniProt Q13093).
T3 construct: Lp-PLA2 protein purified from human plasma in-house; from tissue; host or cells: human plasma, purified in-house
T3 sequence (Q13093 22-441): T1 sequence (Q13093 22-441)
In words: Modified colorimetric assay of Lp-PLA2 purified from human plasma (dynamic range). Type of data set: biochemical. The procedure:
as §1
hLp-PLA2 purified from plasma was also serially diluted and 25 pt of each dilution were assayed by a modified drug-sensitive colorimetric assay (data shown in Table 11). […] The relatively lower upper limit of the dynamic range determined by purified hLp-PLA2 may be resulted from interference factors possibly present in the purified product and/or introduced during purification process. Limited availability of such purified protein prevents further investigation.

Where “and” joins values, the source holds several entries; their conditions need not be identical. Equal entries are not always repeated.

As a reminder, the Km is the concentration of substrate that gives half-maximal velocity. In the case of `CCCCCCCCCCCCCC(=O)OCC(COP(=O)([O-])OCC[N+](C)(C)C)OC(=O)CCC(=O)Oc1ccc([N+](=O)[O-])cc1` (stereo not shown) [substrate, reference compound], the Km on Lp-PLA2 (plasma as the enzyme source, Auto PAF AH protocol) is ~200 µM and 200 µM.
As to `COCCN1CCC(N(Cc2ccc(-c3ccc(C(F)(F)F)cc3)cc2)C(=O)Cn2c(SCc3cccc(F)c3F)cc(=O)c3ccccc32)CC1` [Formula I], the “drug inhibition by Auto PAF AH assay” value at Lp-PLA2 (four subjects, 80-240 mg in vivo) is given as “failed to indicate drug inhibition”. For the same molecule, at Lp-PLA2 (six drug-treated human subjects, 120-240 mg in vivo), the “Lp-PLA2 inhibition measured by Auto PAF AH assay” value is “not apparent”.
In the case of `CCN(CC)CCN(Cc1ccc(-c2ccc(C(F)(F)F)cc2)cc1)C(=O)Cn1c(SCc2ccc(F)cc2)nc(=O)c2c1CCC2` [Formula II, 1-(N-(2-(Diethylamino)ethyl)-N-(4-(4-trifluoromethylphenyl)benzyl)-aminocarbonylmethyl)-2-(4-fluorobenzyl)thio-5,6-trimethylenepyrimidin-4-one bitartrate], in data set [1], the peak plasma level worked out at 90 ng/mL.

B1: hrLp-PLA2: recombinant human Lp-PLA2 protein generated in-house (protein, UniProt Q13093 22-441, looked up)
Platelet-activating factor …: T1 sequence (Q13093 22-441)
With B1, the Activity in data set [2] (hrLp-PLA2 4.88 ng/mL, […] Substrate/45 μL) is recorded as 2.71 nmol/min/mL; in data set [2] (hrLp-PLA2 9.77 ng/mL, […] Substrate/45 μL), 5.13 nmol/min/mL; in data set [2] (hrLp-PLA2 19.53 ng/mL, […] Substrate/45 μL), 9.27 nmol/min/mL; in data set [2] (hrLp-PLA2 39.06 ng/mL, […] Substrate/45 μL), 17.81 nmol/min/mL; in data set [2] (hrLp-PLA2 78.13 ng/mL, […] Substrate/45 μL) it was 30.16 nmol/min/mL; in data set [2] (hrLp-PLA2 156.25 ng/mL, […] Substrate/45 μL), 51.62 nmol/min/mL. Moreover, the Activity in data set [2] (hrLp-PLA2 312.50 ng/mL, […] Substrate/45 μL) is listed as 84.14 nmol/min/mL; in data set [2] (hrLp-PLA2 625.00 ng/mL, […] Substrate/45 μL), 109.44 nmol/min/mL; in data set [2] (hrLp-PLA2 1250.00 ng/mL, […] Substrate/45 μL), 93.90 nmol/min/mL; in data set [2] (hrLp-PLA2 1650 ng/ml, 25 uL assayed), 30.0 nmol/min/mL; in data set [2] (hrLp-PLA2 3300 ng/ml, 25 uL assayed) it was 69.7 nmol/min/mL; in data set [2] (hrLp-PLA2 6600 ng/ml, 25 uL assayed), 169.0 nmol/min/mL. The Activity in data set [2] (hrLp-PLA2 14666 ng/ml, 25 uL assayed) worked out at 413.7 nmol/min/mL. Further, the “Activity (assay dynamic range)” value in data set [2] (reaction time used for calculation 30 sec-0) is 3.4 to 210 nmol/min/mL; in data set [2] (reaction time used for calculation 1 min-0) it was 3.2 to 196.5 nmol/min/mL.

B2: Purified hLp-PLA2 (protein, UniProt Q13093 22-441, looked up)
Platelet-activating factor …: T1 sequence (Q13093 22-441)
Turning to B2, the Activity in data set [3] (Purified hLp-PLA2 6.25 ng/ml) was 2.47 nmol/min/mL; in data set [3] (Purified hLp-PLA2 12.50 ng/ml), 5.06 nmol/min/mL; in data set [3] (Purified hLp-PLA2 50.00 ng/ml) it was 25.68 nmol/min/mL; in data set [3] (Purified hLp-PLA2 100.00 ng/ml), 54.34 nmol/min/mL; in data set [3] (Purified hLp-PLA2 200.00 ng/ml), 119.34 nmol/min/mL; in data set [3] (Purified hLp-PLA2 400.00 ng/ml) it was 212.95 nmol/min/mL. Moreover, the Activity in data set [3] (Purified hLp-PLA2 600.00 ng/ml) was 273.60 nmol/min/mL; in data set [3] (Purified hLp-PLA2 800.00 ng/ml), 324.85 nmol/min/mL; in data set [3] (Purified hLp-PLA2 1000.00 ng/ml), 338.51 nmol/min/mL.

Source of the values: US8609357B2, “Methods for detecting LP-PLA2 activity and inhibition of LP-PLA2 activity” (Glaxo Group Limited, priority 2004, dated 2013).
